From article PMC9206684
Blank lines part the entries; values can stand above or below the binder they belong to.

Assays:
[1] = molecular target: GST-tagged IGF2BP2 (human), Q9Y6M1; assay: cross-linking; cell suspension with 1.25 mM DSS, 30 min, 37 °C; nondenaturing lysis and PAGE, Western blot; monomer 65 kDa, homodimer 130 kDa; HEK293T (GST-IGF2BP2) and OVCAR3/CAOV3 (endogenous, with Ct-OATP1B3 or IGF2BP2 knockdown or overexpression); details: remark: other sources report otherwise
[2] = molecular target: insulin-like growth factor 2 mRNA-binding protein 2 (IGF2BP2), endogenous (human (endogenous in CAOV3 and OVCAR3)), Q9Y6M1; assay: as above; details: remark: other sources report otherwise

stoichiometry N [1]: 2
B1: GST-tagged IGF2BP2, Q9Y6M1 1-599 (natural protein)
chain: MMNKLYIGNLSPAVTADDLRQLFGDRKLPLAGQVLLKSGYAFVDYPDQNWAIRAIETLSGKVELHGKIMEVDYSVSKKLRSRKIQIRNIPPHLQWEVLDGLLAQYGTVENVEQVNTDTETAVVNVTYATREEAKIAMEKLSGHQFENYSFKISYIPDEEVSSPSPPQRAQRGDHSSREQGHAPGGTSQARQIDFPLRILVPTQFVGAIIGKEGLTIKNITKQTQSRVDIHRKENSGAAEKPVTIHATPEGTSEACRMILEIMQKEADETKLAEEIPLKILAHNGLVGRLIGKEGRNLKKIEHETGTKITISSLQDLSIYNPERTITVKGTVEACASAEIEIMKKLREAFENDMLAVNQQANLIPGLNLSALGIFSTGLSVLSPPAGPRGAPPAAPYHPFTTHSGYFSSLYPHHQFGPFPHHHSYPEQEIVNLFIPTQAVGAIIGKKGAHIKQLARFAGASIKIAPAEGPDVSERMVIITGPPEAQFKAQGRIFGKLKEENFFNPKEEVKLEAHIRVPSSTAGRVIGKGGKTVNELQNLTSAEVIVPRDQTPDENEEVIVRIIGHFFASQTAQRKIREIVQQVKQQEQKYPQGVASQRSK

stoichiometry N [2]: 2
B2: insulin-like growth factor 2 mRNA-binding protein 2 (IGF2BP2), endogenous, Q9Y6M1 1-599 (natural protein)
chain: B1 chain
